For experiment [1], the target named is T1, recombinant canine Nerve Growth Factor (Canis lupus familiaris NGF) (canine (Canis lupus familiaris), UniProt Q29074 110-229 (pig entry), limits assumed).
T1 construct: also called canine NGF; Dog NGF
T1 chain: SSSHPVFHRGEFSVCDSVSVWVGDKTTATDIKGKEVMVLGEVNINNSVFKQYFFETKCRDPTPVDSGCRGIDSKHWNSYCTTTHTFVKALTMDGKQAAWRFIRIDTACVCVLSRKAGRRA
The experiment can be described thus: SPR, Biacore T100, dog NGF; run 11/24. For orientation: SPR reads the build-up and loss of mass on a sensor chip optically.

In experiment [2] the target is T1, recombinant canine Nerve Growth Factor …. The experiment can be described thus: SPR, Biacore T100, dog NGF; run 11/29.
Experiment [3] has the same target. Nature of the experiment: SPR, Biacore T100, dog NGF; run 11/22.

Usually Kd stands for the free concentration of one partner at which half of the binding sites on the other are occupied at equilibrium, for simple one-to-one binding.

B1: LTM construct 45 (HC Y100W, LC H32N) (antibody, V domains shown)
VH: EVQLVESGGDLARPGGSLKLSCVVSGFSLIGYDINWVRQAPGKGLQWVTMIWGDGTTDYNSALKSRFTVSRDNAMNTVYLQMNSLRVEDTAVYYCARGGWYYGTSYYFDYWGQGTLVTVSS
VL: DIVMTQTPLSLSVSPGETASISCRASQDISNNLNWFRQKPGQSPQRLIYYISRFHSGVPDRFSGSGSGTDFTLRISRVEADDTGVYYCQQSKTLPYTFGAGTKLEIK
notes: Point mutant of canE3M65 as full IgG; Constant regions are not restated
For B1, the Kd in experiment [1] worked out at 2.1 nM; in experiment [2], 4.35 nM.

B2: LTM construct 43 (HC Y100W, LC K92H) (antibody, V domains shown)
VH: EVQLVESGGDLARPGGSLKLSCVVSGFSLIGYDINWVRQAPGKGLQWVTMIWGDGTTDYNSALKSRFTVSRDNAMNTVYLQMNSLRVEDTAVYYCARGGWYYGTSYYFDYWGQGTLVTVSS
VL: DIVMTQTPLSLSVSPGETASISCRASQDISNHLNWFRQKPGQSPQRLIYYISRFHSGVPDRFSGSGSGTDFTLRISRVEADDTGVYYCQQSHTLPYTFGAGTKLEIK
notes: as for B1
As for B2, the Kd in experiment [1] is 5.67 nM.

B3: LTM construct 44 (HC Y100W, LC S91E) (antibody, V domains shown)
VH: EVQLVESGGDLARPGGSLKLSCVVSGFSLIGYDINWVRQAPGKGLQWVTMIWGDGTTDYNSALKSRFTVSRDNAMNTVYLQMNSLRVEDTAVYYCARGGWYYGTSYYFDYWGQGTLVTVSS
VL: DIVMTQTPLSLSVSPGETASISCRASQDISNHLNWFRQKPGQSPQRLIYYISRFHSGVPDRFSGSGSGTDFTLRISRVEADDTGVYYCQQEKTLPYTFGAGTKLEIK
notes: as for B1
B3: the binding result in experiment [1] was “no binding”.

B4: LTM construct 34 (HC Y100W, LC D28S, H32N) (antibody, V domains shown)
VH: EVQLVESGGDLARPGGSLKLSCVVSGFSLIGYDINWVRQAPGKGLQWVTMIWGDGTTDYNSALKSRFTVSRDNAMNTVYLQMNSLRVEDTAVYYCARGGWYYGTSYYFDYWGQGTLVTVSS
VL: DIVMTQTPLSLSVSPGETASISCRASQSISNNLNWFRQKPGQSPQRLIYYISRFHSGVPDRFSGSGSGTDFTLRISRVEADDTGVYYCQQSKTLPYTFGAGTKLEIK
notes: as for B1
Regarding B4, the Kd came to 0.639 nM in experiment [3] and 0.885 nM in experiment [2].

B5: LTM construct 35 (HC Y100W, LC D28S, H32N, K92H) (antibody, V domains shown)
VH: EVQLVESGGDLARPGGSLKLSCVVSGFSLIGYDINWVRQAPGKGLQWVTMIWGDGTTDYNSALKSRFTVSRDNAMNTVYLQMNSLRVEDTAVYYCARGGWYYGTSYYFDYWGQGTLVTVSS
VL: DIVMTQTPLSLSVSPGETASISCRASQSISNNLNWFRQKPGQSPQRLIYYISRFHSGVPDRFSGSGSGTDFTLRISRVEADDTGVYYCQQSHTLPYTFGAGTKLEIK
notes: as for B1
B5: the results for the Kd in experiment [3] and in experiment [2] were 0.237 nM and 0.81 nM, respectively.

B6: LTM109 (HC Y101W, G103A; LC D28S, H32N, K92H) (antibody, V domains shown)
VH: EVQLVESGGDLARPGGSLKLSCVVSGFSLIGYDINWVRQAPGKGLQWVTMIWGDGTTDYNSALKSRFTVSRDNAMNTVYLQMNSLRVEDTAVYYCARGGYWYATSYYFDYWGQGTLVTVSS
VL: DIVMTQTPLSLSVSPGETASISCRASQSISNNLNWFRQKPGQSPQRLIYYISRFHSGVPDRFSGSGSGTDFTLRISRVEADDTGVYYCQQSHTLPYTFGAGTKLEIK
notes: Full IgG; constant regions are not restated; also called CAN-LTM109-VH / CAN-LTM109-VL
With B6, the values for the Kd in experiment [1] and in experiment [2] were 0.515 nM and 0.748 nM, respectively.

The values are drawn from US20150147318A1 (ZOETIS SERVICES, published 2015).
